Results published in patent US6066621A, “Synthetic peptides for the treatment of myasthenia gravis” (Yeda Research and Development Co. Ltd., priority 1995, dated 2000).
Where no end group is shown, it is not given here. The star is where a group is joined. Biotin = O=C1N[C@H]2[C@H](CS[C@H]2CCCCC(=O)*)N1; Ahx = NCCCCCC(=O)O

What was measured:
[1] = biological target: p195-212 presented by antigen-presenting cells of MG patients (HLA class II) (human)
[2] = biological target: p259-271 presented by antigen-presenting cells of MG patients (HLA class II) (human)
[3] = test system: peripheral blood lymphocytes (PBL) of myasthenia gravis patients; settings: 96 h
Experimental: Peripheral blood lymphocytes (PBL) of myasthenia gravis patients and of the appropriate control donors (2×10^5 cells/well) were assayed in microtiter plates in 0.2 ml enriched medium containing 10% autologous serum, in the presence of different doses of the peptides p195-212 and the analog 207Ala for 96 h, followed by an overnight pulse with 0.5 μCi of ^3 H-thymidine. Cells were harvested and radioactivity determined. Inhibition of the proliferative responses was done by adding different doses of 207Ala into the incubation mixture at the same time as the pathogenic peptide p195-212.

[4] = test system: T cell line TCSJL195-212
Experimental: T cell lines and clones specific to p195-212 were established from lymph node cells of high (SJL) responder mouse strain by the method described by Brocke et al. (1990a), supra, and designated TCSJL195-212 line (Mozes, E. et al. (1991), supra; see also Kirshner et al. (1994), supra).
Cells (10^4 per well) of the T cell Line TCSJL195-212 or TCBALB/c259-271 were incubated in the presence of irradiated syngeneic spleen cells (0.5×10^6), either p195-212 or p259-271 (10 μM) and various concentrations of the dual epitope analogs 207Ala-262Lys or 262Lys-207Ala for 48 h. Thereafter, ^3 H-thymidine was added and 16 h later plates we harvested.

[5] = biological target: MHC Class II molecules of BALB/c mice (on syngeneic spleen cells used as antigen-presenting cells)
[6] = biological target: MHC Class II molecules of BALB/c mice (on syngeneic spleen cells used as antigen-presenting cells); remark: listed apart in the source
[7] = biological target: MHC Class II molecules of BALB/c mice (on syngeneic spleen cells used as antigen-presenting cells); remark: listed apart in the source
[8] = biological target: MHC class II on human antigen presenting cells
[9] = biological target: MHC class II of SJL mice (on antigen presenting cells)
[10] = biological target: MHC class II of SJL mice (on antigen presenting cells); assay: flow cytometry, biotinylated peptide on SJL antigen presenting cells, PE-streptavidin

For “peripheral blood lymphocytes (PBL) of myasthenia gravis patients (cells without a defined receptor)”, the proliferative response of PBL, stimulation index (SI) (stimulation index) [1] was 6.3 and the proliferative response of PBL, stimulation index (SI) (stimulation index) [2] was 4.1.

DTPYLDITYHFVAQRLPL [207Ala] was tested, and the “inhibition of proliferative responses of PBL, all three patients” value [3] was 77-100% and the “inhibition of the proliferative response of the TCSJL195-212 line to p195-212” value [4] was “more than 99%”.

VIVKLIPSTSSAV [262Lys analog of p259-271] was tested, and the % of inhibition of the p259-271 specific proliferative response of TCBALB/c259-271 [5] was under 93 % inhibition, the inhibition of the helper activity of TCBALB/c259-271 (p259-271 specific antibody production) [6] was under 80 % inhibition and the inhibition of the proliferative response of lymph node cells of p259-271 immunized BALB/c mice to p259-271 [7] was under 64.7 % inhibition. It also gave a % inhibition of the p259-271 induced proliferative response of PBL (three MG patients) [8] of 100 % inhibition.

DTPYLDITYHFVAQRLPL [207Ala analog of p195-212] showed an inhibition of the p195-212 specific proliferative response of TCSJL195-212 [9] of over 99 % inhibition.

With VIVDLIPSTSSAV [262Asp analog of p259-271] the % inhibition of the p259-271 induced proliferative response of PBL (three MG patients) [8] was 78 % inhibition.

VIVELIPDTSSAV [266Asp analog of p259-271] showed a % inhibition of the p259-271 induced proliferative response of PBL (three MG patients) [8] of 85.6 % inhibition.

Work on {Biotin-Ahx}-VIVKLIPSTSSAVDTPYLDITYHFVAQRLPL [biotinylated dual analog 262Lys-207Ala] yielded a fold affinity against 207Ala-262Lys [10] of 10 fold.
